# Measurements as given in patent CN114044821A (INST MILITARY MEDICINE ACADEMY MILITARY SCIENCES PLA, dated 2022).
# Molecular target: 新冠病毒野生型刺突蛋白(S蛋白)，在假病毒/真病毒表面 (SARS-CoV-2, UniProt P0DTC2 14-1273)
# Test: cell-based or functional assay
binder,measurement,value
"抗SARS-CoV-2全人源单克隆抗体ZWC12 (antibody, V domains shown) VH: EVQLVESGGALVQPGGSLRLSCAASGFTFANYAMSWVRQAPGKGLEWVSSMTGSSIDSYYADSVKGRFTISRDNSRNTLYLQMNSLRAEDTAVYYCAKGELLWFGDLLHNWFDPWGRGTLVTVSS VL: DIVMTQSPATLSVSPGERATLSCRASQSVSTNLAWYQQKPGQAPRLLIHGASTRATGLPARFSGSGSGTEFTLTISSLQSEDFAVYFCQQYDSWPGTFGPGTKVDIKR","假病毒中和 EC50 (luciferase, HEK293T)",1.04 µg/mL
same,"真病毒中和 EC50 (Vero E6, crystal violet)",25 µg/mL
